Assay results published in the supplement of paper PMC7877785.
± gives the uncertainty stated by the source.

Assay: self-splicing fitness, log relative to wild type (ln ratio); higher = more splicing; Tetrahymena group I intron in knt gene, E. coli kanamycin selection, DiMSum; sequences stand for … in CUCUCU…GGAGGGAAAAGUUAUCAGGCAUGCACCUGGUAGCUAGUCUUUAAACCAAUAGAUUGCAUCGGUUUAAAAGGCAAGACCGUCAAAUUGCGGGAAAGGGGUCAACAGCCGUUCAGUACCAAGUCUCAGGGGAAACUUUGAGAUGGCCUUGCAAAGGGUAUGGUAAUAAGCUGACGGACAUGGUCCUAACCACGCAGCCAAGUCCUAAGUCAACAGAUCUUCUGUUGAUAUGGAUGCAGUUCACAGACUAAAUGUCGGUCGGGGAAGAUGUAUUCUUCUCAUAAGAUAUAGUCGGACCUCUCCUUAAUGGGAGCUAGCGGAUGAAGUGAUGCAACACUGGAGCCGCUGGGAACUAAUUUGUAUGCGAAAGUAUAUUGAUUAGUUUUGGAGUACUCGUGGUCG
Summary of the method: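 A randomised library covering all eight P1ex-region intron nucleotides was built with the intron in the knt kanamycin-resistance gene on pET-22b(+) and held in E. coli BL21(DE3). Cells were grown overnight at 37°C or 30°C on LB agar, with or without 25 μg/mL kanamycin, plus 100 μg/mL carbenicillin, 50 μM IPTG and 0.2% rhamnose, and pooled colonies were amplicon-sequenced on an Illumina HiSeq 2500. DiMSum fitness is the error-weighted combination of wild-type-normalised replicate fold changes, kanamycin versus none.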

| Sequence | self-splicing fitness (ln) (30 °C) | self-splicing fitness (ln) (37 °C) |
| --- | --- | --- |
| GCCCAGCAAUAUUACGGAAU | -0.828 ± 0.056 | 0.223 ± 0.078 |
| AAAUAGCAAUAUUACGGAGG | -3.39 ± 0.2 | -2.86 ± 0.26 |
| ACUUAGCAAUAUUACGCAAC | -2.89 ± 0.19 | -1.72 ± 0.17 |
| GGCCAGCAAUAUUACGUAGA | -1.59 ± 0.12 | -1.04 ± 0.15 |
| UUUUAGCAAUAUUACGUGGC | -3.09 ± 0.42 | – |
| GGAUAGCAAUAUUACGACAA | -0.923 ± 0.12 | -0.865 ± 0.14 |
| UGGAAGCAAUAUUACGGUGA | -1.41 ± 0.12 | -0.4 ± 0.13 |
| AUGGAGCAAUAUUACGUGGG | -3.61 ± 0.37 | -0.89 ± 0.27 |
| CACAAGCAAUAUUACGUGUG | -3.65 ± 0.12 | -2.69 ± 0.12 |
| GUGCAGCAAUAUUACGGAGA | – | -1.86 ± 0.38 |
| UAUUAGCAAUAUUACGUGGG | -4.06 ± 0.27 | -2.44 ± 0.17 |
| GCAGAGCAAUAUUACGAUGG | -1.98 ± 0.098 | -1.65 ± 0.12 |
| CAGAAGCAAUAUUACGCGUG | -4.79 ± 0.27 | -2.62 ± 0.12 |
| GGAGAGCAAUAUUACGAUGG | -4.43 ± 0.46 | – |
| UUAUAGCAAUAUUACGCUGG | -1.35 ± 0.14 | -0.828 ± 0.12 |
| AGCGAGCAAUAUUACGACGG | -3.17 ± 0.44 | -1.81 ± 0.26 |
| UUAGAGCAAUAUUACGUGCC | – | -1.58 ± 0.33 |
| GUCGAGCAAUAUUACGGUAG | -2.02 ± 0.11 | -2.54 ± 0.25 |
| GCCGAGCAAUAUUACGAUCA | -1.91 ± 0.12 | -1.69 ± 0.15 |
| CGUCAGCAAUAUUACGAACG | -2.55 ± 0.17 | -1.32 ± 0.18 |

| Sequence | self-splicing fitness (ln) (30 °C) | self-splicing fitness (ln) (37 °C) |
| --- | --- | --- |
| AGUAAGCAAUAUUACGAGGG | -3.06 ± 0.18 | -2.87 ± 0.28 |
| CUGUAGCAAUAUUACGUUUC | -3.58 ± 0.19 | -2.99 ± 0.32 |
| UGUUAGCAAUAUUACGUUGU | -3.71 ± 0.28 | -2.3 ± 0.17 |
| CAUGAGCAAUAUUACGCGCU | -3.58 ± 0.42 | -2.21 ± 0.4 |
| CUUGAGCAAUAUUACGAUGG | -2.94 ± 0.2 | -2.13 ± 0.23 |
| UUUCAGCAAUAUUACGCAAA | -2.1 ± 0.15 | -0.378 ± 0.13 |
| CUAAAGCAAUAUUACGUUAC | -3.78 ± 0.26 | -2.06 ± 0.31 |
| AGAAAGCAAUAUUACGACCG | -0.595 ± 0.15 | 0.0491 ± 0.17 |
| AUUCAGCAAUAUUACGGGAC | -3.2 ± 0.16 | -1.2 ± 0.12 |
| GACCAGCAAUAUUACGGGAC | -2.5 ± 0.092 | -1.03 ± 0.092 |
| AGACAGCAAUAUUACGGAGU | -4.06 ± 0.16 | -2.28 ± 0.13 |
| UAGAAGCAAUAUUACGUUUA | -1.21 ± 0.11 | -0.575 ± 0.098 |
| CCCUAGCAAUAUUACGUAAC | -3.66 ± 0.27 | -1.33 ± 0.18 |
| CUAAAGCAAUAUUACGCAGA | -3.64 ± 0.2 | -3.29 ± 0.42 |
| AGGAAGCAAUAUUACGGCUC | -1.07 ± 0.14 | -0.713 ± 0.19 |
| UUUCAGCAAUAUUACGGGAA | -1.96 ± 0.2 | -1.93 ± 0.21 |
| UAGGAGCAAUAUUACGUUCA | -2.05 ± 0.16 | -1.02 ± 0.19 |
| GGCGAGCAAUAUUACGUGUU | -2.5 ± 0.12 | -1.39 ± 0.14 |
| AGUUAGCAAUAUUACGCACA | 0.242 ± 0.2 | 0.395 ± 0.28 |
